Legend:
[1] = system: HA–JNK2; assay: GST pull-down with WDR62 1018-C–GST constructs; format: binding, human; settings: HEK-293T; for association with HA–JNK2: anti-HA/anti-pJNK
[2] = system: HA–JNK1; assay: GST pull-down with WDR62 1018-C–GST constructs; format: binding, human; settings: HEK-293T; for association with HA–JNK1: anti-HA/anti-pJNK
[3] = system: GST–MKK7β1; assay: GST pull-down of WDR62 fragments with GST–MKK7β1; format: binding, human; settings: HEK-293T
[4] = system: His–MKK7β1; assay: In vitro protein-binding assay; parameters: species or system human; settings: purified proteins, 2 h at 37°C, amylose resin
[5] = system: His–JNK2; assay: In vitro protein-binding assay; parameters: species or system human; settings: purified proteins, 2 h at 37°C, amylose resin
[6] = system: HA–JNK2; assay: Co-immunoprecipitation of HA–JNK2 with Myc-tagged WDR62 constructs, HEK-293T; format: binding, human; settings: quantified, means±S.D., three independent experiments
[7] = system: WDR62; assay: GST pull-down of MKK4 with WDR62 fragments; format: binding, human; settings: HEK-293T, compared with MKK7–WDR62

B1: 1018-CΔD–GST: WDR62-1018-C lacking the D domain fused to GST (protein)
chain: RFATSLPHFPGCAGPTEDELSLPEGPSVPSSSLPQTPEQEKFLRHHFETLTESPCRELFPAALGDVEASEAEDHFFNPRLSISTQFLSSLQKASRFTHTFPPRATQCLVKSPEVKLMDRGGSQPRAGTGYASPDRTHVLAAGKAEETLEAWRPPPPCLTSLASCVPASSVLPTDRNLPTPTSAPTPGLAQGVHAPSTCSYMEATASSRARISRSISLGDSEGPIVATLAQPLRRPSSVGELASLGQELQAITTATTPSLDSEGQEPALRSWGNHEASSACDGLLQPPVDTQPGVTVPAVSFPAPSPVEESALRLHGSAFRPSLPAPESPGLPAHPSNPQLPEARPGIPGGTASLLEPTSGALGLLQGSPARWSEPWVPVEALPPSPLELSRVGNILHRLQTTFQEALDLYRVLVSSGQVDTGQQQARTELVSTFLWIHSQLEAECLVGTSVAPAQALPSPGPPSPPTLYPLASPDLQALLEHYSELLVQAVRRKARGH
association with HA–JNK2 [1]: relatively weak interaction
pJNK2 in precipitate ([1]; anti-pJNK): no pJNK1/2 was detected
association with HA–JNK1 [2]: relatively weak interaction
pJNK1 in precipitate ([2]; anti-pJNK): no pJNK1/2 was detected

B2: Myc-1018-CΔD (protein)
chain: RFATSLPHFPGCAGPTEDELSLPEGPSVPSSSLPQTPEQEKFLRHHFETLTESPCRELFPAALGDVEASEAEDHFFNPRLSISTQFLSSLQKASRFTHTFPPRATQCLVKSPEVKLMDRGGSQPRAGTGYASPDRTHVLAAGKAEETLEAWRPPPPCLTSLASCVPASSVLPTDRNLPTPTSAPTPGLAQGVHAPSTCSYMEATASSRARISRSISLGDSEGPIVATLAQPLRRPSSVGELASLGQELQAITTATTPSLDSEGQEPALRSWGNHEASSACDGLLQPPVDTQPGVTVPAVSFPAPSPVEESALRLHGSAFRPSLPAPESPGLPAHPSNPQLPEARPGIPGGTASLLEPTSGALGLLQGSPARWSEPWVPVEALPPSPLELSRVGNILHRLQTTFQEALDLYRVLVSSGQVDTGQQQARTELVSTFLWIHSQLEAECLVGTSVAPAQALPSPGPPSPPTLYPLASPDLQALLEHYSELLVQAVRRKARGH
association with MKK7β1, in words [3]: efficiently precipitated with GST–MKK7β1

B3: Myc-1018-1284: Myc-tagged WDR62 aa 1018–1284 (protein)
chain: RFATSLPHFPGCAGPTEDELSLPEGPSVPSSSLPQTPEQEKFLRHHFETLTESPCRELFPAALGDVEASEAEDHFFNPRLSISTQFLSSLQKASRFTHTFPPRATQCLVKSPEVKLMDRGGSQPRAGTGYASPDRTHVLAAGKAEETLEAWRPPPPCLTSLASCVPASSVLPTDRNLPTPTSAPTPGLAQGVHAPSTCSYMEATASSRARISRSISLGDSEGPIVATLAQPLRRPSSVGELASLGQELQAITTATTPSLDSEGQEPA
association with MKK7β1, in words [3]: efficiently associated

B4: Myc-1212-C: Myc-tagged WDR62 aa 1212–1523 (protein)
chain: PSTCSYMEATASSRARISRSISLGDSEGPIVATLAQPLRRPSSVGELASLGQELQAITTATTPSLDSEGQEPALRSWGNHEARANLRLTLSSACDGLLQPPVDTQPGVTVPAVSFPAPSPVEESALRLHGSAFRPSLPAPESPGLPAHPSNPQLPEARPGIPGGTASLLEPTSGALGLLQGSPARWSEPWVPVEALPPSPLELSRVGNILHRLQTTFQEALDLYRVLVSSGQVDTGQQQARTELVSTFLWIHSQLEAECLVGTSVAPAQALPSPGPPSPPTLYPLASPDLQALLEHYSELLVQAVRRKARGH
association with MKK7β1, in words [3]: efficiently associated

B5: 1018-C–GST: wild-type WDR62-1018-C fused to GST (protein)
chain: RFATSLPHFPGCAGPTEDELSLPEGPSVPSSSLPQTPEQEKFLRHHFETLTESPCRELFPAALGDVEASEAEDHFFNPRLSISTQFLSSLQKASRFTHTFPPRATQCLVKSPEVKLMDRGGSQPRAGTGYASPDRTHVLAAGKAEETLEAWRPPPPCLTSLASCVPASSVLPTDRNLPTPTSAPTPGLAQGVHAPSTCSYMEATASSRARISRSISLGDSEGPIVATLAQPLRRPSSVGELASLGQELQAITTATTPSLDSEGQEPALRSWGNHEARANLRLTLSSACDGLLQPPVDTQPGVTVPAVSFPAPSPVEESALRLHGSAFRPSLPAPESPGLPAHPSNPQLPEARPGIPGGTASLLEPTSGALGLLQGSPARWSEPWVPVEALPPSPLELSRVGNILHRLQTTFQEALDLYRVLVSSGQVDTGQQQARTELVSTFLWIHSQLEAECLVGTSVAPAQALPSPGPPSPPTLYPLASPDLQALLEHYSELLVQAVRRKARGH
association with HA–JNK2 [1]: efficiently precipitated
association with HA–JNK1 [2]: efficiently precipitated

B6: MBP-1018-C: MBP fused to human WDR62 1018-C fragment (protein)
chain: RFATSLPHFPGCAGPTEDELSLPEGPSVPSSSLPQTPEQEKFLRHHFETLTESPCRELFPAALGDVEASEAEDHFFNPRLSISTQFLSSLQKASRFTHTFPPRATQCLVKSPEVKLMDRGGSQPRAGTGYASPDRTHVLAAGKAEETLEAWRPPPPCLTSLASCVPASSVLPTDRNLPTPTSAPTPGLAQGVHAPSTCSYMEATASSRARISRSISLGDSEGPIVATLAQPLRRPSSVGELASLGQELQAITTATTPSLDSEGQEPALRSWGNHEARANLRLTLSSACDGLLQPPVDTQPGVTVPAVSFPAPSPVEESALRLHGSAFRPSLPAPESPGLPAHPSNPQLPEARPGIPGGTASLLEPTSGALGLLQGSPARWSEPWVPVEALPPSPLELSRVGNILHRLQTTFQEALDLYRVLVSSGQVDTGQQQARTELVSTFLWIHSQLEAECLVGTSVAPAQALPSPGPPSPPTLYPLASPDLQALLEHYSELLVQAVRRKARGH
precipitation of His–MKK7β1 [4]: efficiently precipitated
precipitation of His–JNK2 [5]: efficiently precipitated His–JNK2

B7: Myc-N-1284: Myc-tagged WDR62 aa 1–1284 (protein)
chain: MAAVGSGGYARNDAGEKLPSVMAGVPARRGQSSPPPAPPICLRRRTRLSTASEETVQNRVSLEKVLGITAQNSSGLTCDPGTGHVAYLAGCVVVILDPKENKQQHIFNTARKSLSALAFSPDGKYIVTGENGHRPAVRIWDVEEKNQVAEMLGHKYGVACVAFSPNMKHIVSMGYQHDMVLNVWDWKKDIVVASNKVSCRVIALSFSEDSSYFVTVGNRHVRFWFLEVSTETKVTSTVPLVGRSGILGELHNNIFCGVACGRGRMAGSTFCVSYSGLLCQFNEKRVLEKWINLKVSLSSCLCVSQELIFCGCTDGIVRIFQAHSLHYLANLPKPHYLGVDVAQGLEPSFLFHRKAEAVYPDTVALTFDPIHQWLSCVYKDHSIYIWDVKDINRVGKVWSELFHSSYVWNVEVYPEFEDQRACLPSGSFLTCSSDNTIRFWNLDSSPDSHWQKNIFSNTLLKVVYVENDIQHLQDMSHFPDRGSENGTPMDVKAGVRVMQVSPDGQHLASGDRSGNLRIHELHFMDELVKVEAHDAEVLCLEYSKPETGLTLLASASRDRLIHVLNVEKNYNLEQTLDDHSSSITAIKFAGNRDIQMISCGADKSIYFRSAQQGSDGLHFVRTHHVAEKTTLYDMDIDITQKYVAVACQDRNVRVYNTVNGKQKKCYKGSQGDEGSLLKVHVDPSGTFLATSCSDKSISVIDFYSGECIAKMFGHSEIITSMKFTYDCHHLITVSGDSCVFIWHLGPEITNCMKQHLLEIDHRQQQQHTNDKKRSGHPRQDTYVSTPSEIHSLSPGEQTEDDLEEECEPEEMLKTPSKDSLDPDPRCLLTNGKLPLWAKRLLGDDDVADGLAFHAKRSYQPHGRWAERAGQEPLKTILDAQDLDCYFTPMKPESLENSILDSLEPQSLASLLSESESPQEAGRGHPSFLPQQKESSEASELILYSLEAEVTVTGTDSQYCRKEVEAGPGDQQGDSYLRVSSDSPKDQSPPEDSGESEADLECSFAAIHSPAPPPDPAPRFATSLPHFPGCAGPTEDELSLPEGPSVPSSSLPQTPEQEKFLRHHFETLTESPCRELFPAALGDVEASEAEDHFFNPRLSISTQFLSSLQKASRFTHTFPPRATQCLVKSPEVKLMDRGGSQPRAGTGYASPDRTHVLAAGKAEETLEAWRPPPPCLTSLASCVPASSVLPTDRNLPTPTSAPTPGLAQGVHAPSTCSYMEATASSRARISRSISLGDSEGPIVATLAQPLRRPSSVGELASLGQELQAITTATTPSLDSEGQEPA
reduction of precipitated JNK2 as compared with CS2 and CS5 full-length proteins [6]: 7 -fold

B8: Myc-1232-C: Myc-tagged WDR62 aa 1232–1523 (protein)
chain: ISLGDSEGPIVATLAQPLRRPSSVGELASLGQELQAITTATTPSLDSEGQEPALRSWGNHEARANLRLTLSSACDGLLQPPVDTQPGVTVPAVSFPAPSPVEESALRLHGSAFRPSLPAPESPGLPAHPSNPQLPEARPGIPGGTASLLEPTSGALGLLQGSPARWSEPWVPVEALPPSPLELSRVGNILHRLQTTFQEALDLYRVLVSSGQVDTGQQQARTELVSTFLWIHSQLEAECLVGTSVAPAQALPSPGPPSPPTLYPLASPDLQALLEHYSELLVQAVRRKARGH
association with MKK7β1, in words [3]: but not Myc-1232-C

B9: MKK4: HA-tagged human MKK4 (protein)
chain: MAAPSPSGGGGSGGGSGSGTPGPVGSPAPGHPAVSSMQGKRKALKLNFANPPFKSTARFTLNPNPTGVQNPHIERLRTHSIESSGKLKISPEQHWDFTAEDLKDLGEIGRGAYGSVNKMVHKPSGQIMAVKRIRSTVDEKEQKQLLMDLDVVMRSSDCPYIVQFYGALFREGDCWICMELMSTSFDKFYKYVYSVLDDVIPEEILGKITLATVKALNHLKENLKIIHRDIKPSNILLDRSGNIKLCDFGISGQLVDSIAKTRDAGCRPYMAPERIDPSASRQGYDVRSDVWSLGITLYELATGRFPYPKWNSVFDQLTQVVKGDPPQLSNSEEREFSPSFINFVNLCLTKDESKRPKYKELLKHPFILMYEERAVEVACYVCKILDQMPATPSSPMYVD
MKK4–WDR62 interaction [7]: weaker than the MKK7–WDR62 interaction
